In this assay the target is attachment invasion locus (Ail) protein, wild type (Yersinia pestis). In words: native gel or EMSA. (In EMSA bound probe runs differently from free probe, usually more slowly.)

“attachment invasion locus (Ail) protein, wild type (natural protein)”: the percent oligomers turned out to be 20%.

Values taken from PMC6996891.
